Usually Kd stands for the equilibrium constant for the complex coming apart. A high value points to a looser complex.

Assay in all cases: fluorescence polarisation
(In general: In fluorescence polarisation assays a small probe gives low polarisation when free and higher when bound to something large.)

Test [1] addresses FITC-labeled full-length caspase-7 S30A/C186A (UniProt P55210).
The target in test [2] is FITC-labeled full-length caspase-7 C186A (UniProt P55210).
The target of test [3] is FITC-labeled full-length caspase-7 C186A phosphorylated by autoactivated PAK2 (UniProt P55210).

For “caspase-9 constitutive dimer C287A (from UniProt P55211 1-416) (enzyme)”, the Kd is 1.7 µM in test [1], 1.8 µM in test [2] and over 27 µM in test [3].

For the origin of these results see PMC5521178.
